The record followed here is patent US20240116997A1 (BRIGHT PEAK THERAPEUTICS, published 2024).

The chains are these.
B1: C187 (Propeptide-PLGLAG-C086; SEQ ID NO: 72) (ligand)
chain: MAAEPVEDNCINFVAMKFIDNTLYFIAEDDENLESDPLGLAGYFGKLKSKLSIIRNLNDQVLFIDQGNRPLFEDMTDSDARDNAPRTIFIISMYADSQPRGMAVAISVKCEKISTLSAENKIISFKEMNPPDNIKDTKSDIIFFQRSVPGHDNKMQFESSSYEGYFLAAEKERDLFKLILKKEDELGDRSIMFTVQNED
B2: C136 (C086-GGSGG-IL-18Rα D3-His6, non-cleavable control; SEQ ID NO: 77) (ligand)
chain: YFGKLKSKLSIIRNLNDQVLFIDQGNRPLFEDMTDSDARDNAPRTIFIISMYADSQPRGMAVAISVKCEKISTLSAENKIISFKEMNPPDNIKDTKSDIIFFQRSVPGHDNKMQFESSSYEGYFLAAEKERDLFKLILKKEDELGDRSIMFTVQNEGGSGGSNIVPVLLGPKLNHVAVELGKNVRLNCSALLNEEDVIYWMFGEENGSDPNIHEEKEMRIMTPEGKWHASKVLRIENIGESNLNVLYNCTVASTGGTDTKSFILVRKADHHHHHH
B3: C127 (Propeptide-LinkerX-C086; SEQ ID NO: 69) (ligand)
chain: MAAEPVEDNCINFVAMKFIDNTLYFIAEDDENLESDSGGPGPAGMKGLPGSYFGKLKSKLSIIRNLNDQVLFIDQGNRPLFEDMTDSDARDNAPRTIFIISMYADSQPRGMAVAISVKCEKISTLSAENKIISFKEMNPPDNIKDTKSDIIFFQRSVPGHDNKMQFESSSYEGYFLAAEKERDLFKLILKKEDELGDRSIMFTVQNED
B4: C190 (Propeptide-C086, non-cleavable control; SEQ ID NO: 68) (ligand)
chain: MAAEPVEDNCINFVAMKFIDNTLYFIAEDDENLESDYFGKLKSKLSIIRNLNDQVLFIDQGNRPLFEDMTDSDARDNAPRTIFIISMYADSQPRGMAVAISVKCEKISTLSAENKIISFKEMNPPDNIKDTKSDIIFFQRSVPGHDNKMQFESSSYEGYFLAAEKERDLFKLILKKEDELGDRSIMFTVQNED
B5: C190 + MMP9 (ligand)
chain: MAAEPVEDNCINFVAMKFIDNTLYFIAEDDENLESDYFGKLKSKLSIIRNLNDQVLFIDQGNRPLFEDMTDSDARDNAPRTIFIISMYADSQPRGMAVAISVKCEKISTLSAENKIISFKEMNPPDNIKDTKSDIIFFQRSVPGHDNKMQFESSSYEGYFLAAEKERDLFKLILKKEDELGDRSIMFTVQNED
B6: C137 (C086-GGGGSGGGGSGGGG-IL-18Rα D3-His6, non-cleavable control; SEQ ID NO: 78) (ligand)
chain: YFGKLKSKLSIIRNLNDQVLFIDQGNRPLFEDMTDSDARDNAPRTIFIISMYADSQPRGMAVAISVKCEKISTLSAENKIISFKEMNPPDNIKDTKSDIIFFQRSVPGHDNKMQFESSSYEGYFLAAEKERDLFKLILKKEDELGDRSIMFTVQNEGGGGSGGGGSGGGGSNIVPVLLGPKLNHVAVELGKNVRLNCSALLNEEDVIYWMFGEENGSDPNIHEEKEMRIMTPEGKWHASKVLRIENIGESNLNVLYNCTVASTGGTDTKSFILVRKADHHHHHH
B7: C185 (Propeptide-PLG-C086; SEQ ID NO: 70) (ligand)
chain: MAAEPVEDNCINFVAMKFIDNTLYFIAEDDENLESDPLGYFGKLKSKLSIIRNLNDQVLFIDQGNRPLFEDMTDSDARDNAPRTIFIISMYADSQPRGMAVAISVKCEKISTLSAENKIISFKEMNPPDNIKDTKSDIIFFQRSVPGHDNKMQFESSSYEGYFLAAEKERDLFKLILKKEDELGDRSIMFTVQNED

The target of this assay is T1, IL-18 receptor (IL-18Rαβ) on cells (UniProt Q13478 19-541; O95256 20-599, limits assumed).
T1 sequence (looked up) 1: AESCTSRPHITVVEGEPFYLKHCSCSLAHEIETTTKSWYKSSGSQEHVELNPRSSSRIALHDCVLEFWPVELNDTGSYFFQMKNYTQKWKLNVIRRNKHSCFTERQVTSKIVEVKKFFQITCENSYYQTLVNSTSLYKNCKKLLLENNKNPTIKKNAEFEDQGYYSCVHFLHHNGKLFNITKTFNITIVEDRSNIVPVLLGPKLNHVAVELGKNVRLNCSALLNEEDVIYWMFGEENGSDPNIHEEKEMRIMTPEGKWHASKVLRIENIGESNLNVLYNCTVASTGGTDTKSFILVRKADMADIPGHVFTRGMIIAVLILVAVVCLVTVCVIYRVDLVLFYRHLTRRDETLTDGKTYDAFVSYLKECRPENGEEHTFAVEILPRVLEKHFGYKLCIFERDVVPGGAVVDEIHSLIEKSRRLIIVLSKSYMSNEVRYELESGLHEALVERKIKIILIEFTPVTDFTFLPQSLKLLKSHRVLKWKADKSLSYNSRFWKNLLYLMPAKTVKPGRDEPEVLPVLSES
T1 sequence (looked up) 2: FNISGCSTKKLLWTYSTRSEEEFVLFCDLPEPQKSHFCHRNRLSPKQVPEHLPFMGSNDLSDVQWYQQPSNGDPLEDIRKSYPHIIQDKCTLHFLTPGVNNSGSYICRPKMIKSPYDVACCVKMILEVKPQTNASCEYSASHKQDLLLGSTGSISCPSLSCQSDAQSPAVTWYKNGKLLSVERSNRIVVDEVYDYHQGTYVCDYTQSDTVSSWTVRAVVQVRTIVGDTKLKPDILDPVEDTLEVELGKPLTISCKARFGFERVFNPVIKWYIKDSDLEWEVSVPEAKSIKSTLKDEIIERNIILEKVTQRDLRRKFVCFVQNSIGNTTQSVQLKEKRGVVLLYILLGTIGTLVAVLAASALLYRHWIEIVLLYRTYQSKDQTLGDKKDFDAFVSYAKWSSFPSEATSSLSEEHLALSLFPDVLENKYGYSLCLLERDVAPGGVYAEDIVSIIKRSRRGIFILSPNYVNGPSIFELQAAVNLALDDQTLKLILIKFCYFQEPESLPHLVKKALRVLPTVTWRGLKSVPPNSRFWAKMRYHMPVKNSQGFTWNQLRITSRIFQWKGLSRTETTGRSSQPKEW
Briefly: cell-based or functional assay.
With B1, the “Fold potency loss vs C086” value came out at 29400 fold and the “HEK-blue EC50” value came to 1240 nM.

On to B2, for which the “Fold potency loss vs C086” value is 21 fold and the “HEK-blue EC50” value came out at 0.884 nM.

As to B3, the “Fold potency loss vs C086” value amounted to 7000 fold and the “HEK-blue EC50” value was 295 nM.

Turning to B4, the “HEK-blue EC50” value turned out to be 404 nM.

For the molecule B5, the “HEK-blue EC50” value worked out at 198 nM.

In the case of B6, the “Fold potency loss vs C086” value turned out to be 49 fold and the “HEK-blue EC50” value is 2.08 nM.

For the molecule B7, the “Fold potency loss vs C086” value is 60900 fold and the “HEK-blue EC50” value is 2560 nM.
